The record followed here is US20110159022A1 (published 2011).

One experiment deals with HLA-DRB5 (DRB5*0101) (human). Kind of experiment: competition ELISA, tracer biotin-HA 306-318. Background: An ELISA detects its analyte on a solid surface through an enzyme-linked reagent.
A further experiment has as its target HLA-DR1 (DRB1*0101) (human). Kind of experiment: competition ELISA, tracer biotin-HA 306-318.
Another experiment addresses HLA-DR11 (DRB1*1101) (human). Kind of experiment: competition ELISA, tracer biotin-HA 306-318.
For a further experiment, the target named is HLA-DR4 (DRB1*0401) (human). Description: competition ELISA, tracer biotin-HA 306-318.
The next experiment addresses HLA-DR13 (DRB1*1301) (human). Description: competition ELISA, tracer biotin-B1 21-36.
The next experiment concerns the target HLA-DR7 (DRB1*0701) (human). Kind of experiment: competition ELISA, tracer biotin-YKL.
A further experiment addresses T1, HLA-DP402 (DPB1*0402) (human, UniProt P20036 29-222, limits assumed).
T1 construct: also called DP*0402
Description: competition ELISA, tracer biotin-Oxy 271-287.

The next experiment concerns the target HLA-DP401 (DPB1*0401) (human, UniProt P20036 29-222, limits assumed). Kind of experiment: competition ELISA, tracer biotin-Oxy 271-287.
Another experiment has as its target HLA-DRB4 (DRB4*0101) (human). Description: competition ELISA, tracer biotin-E2/E168.
Another experiment has as its target HLA-DRB3 (DRB3*0101) (human). Kind of experiment: competition ELISA, tracer biotin-LOL 191-210.
In a further experiment the target is HLA-DR15 (DRB1*1501) (human). Kind of experiment: competition ELISA, tracer biotin-A3 152-166.
The next experiment has as its target HLA-DR3 (DRB1*0301) (human). Kind of experiment: competition ELISA, tracer biotin-MT 2-16.

B1: MDK 110-124 (peptide)
peptide: ARYNAQCQETIRVTK
notes: synthetic 15-mer of the human midkine precursor; also called MDK17
Take B1: the relative binding activity in the experiment with HLA-DRB5 (DRB5*0101) was 15 IC50 ratio to reference peptide; with HLA-DR1 (DRB1*0101) it was 10 IC50 ratio to reference peptide; with HLA-DR11 (DRB1*1101) it was 69 IC50 ratio to reference peptide; with HLA-DR4 (DRB1*0401) it was 6 IC50 ratio to reference peptide.
Take GTKVRQGTLKKARYN (also called MDK15) [MDK 99-113]: the results for the relative binding activity in the experiment with HLA-DR13 (DRB1*1301), with HLA-DRB5 (DRB5*0101) and with HLA-DR1 (DRB1*0101) were 74 IC50 ratio to reference peptide, 215 IC50 ratio to reference peptide and 3000 IC50 ratio to reference peptide, respectively.
Take GTLKKARYNAQCQET (also called MDK16) [MDK 105-119]: the values for the relative binding activity in the experiment with HLA-DR1 (DRB1*0101), with HLA-DR11 (DRB1*1101) and with HLA-DR4 (DRB1*0401) were 97 IC50 ratio to reference peptide, 1010 IC50 ratio to reference peptide and 492 IC50 ratio to reference peptide, respectively.
Regarding ETIRVTKPCTPKTKA (also called MDK18) [MDK 119-133], the relative binding activity with HLA-DR7 (DRB1*0701) is 819 IC50 ratio to reference peptide; with HLA-DRB5 (DRB5*0101), 26 IC50 ratio to reference peptide; with HLA-DR1 (DRB1*0101), 2 IC50 ratio to reference peptide; in the experiment with HLA-DR11 (DRB1*1101), 763 IC50 ratio to reference peptide; with HLA-DR4 (DRB1*0401), 1290 IC50 ratio to reference peptide.

B2: MDK 1-15 (peptide)
peptide: MQHRGFLLLTLLALL
notes: synthetic 15-mer of the human midkine precursor; also called peptide 1-15
As for B2, the relative binding activity in the experiment with HLA-DR7 (DRB1*0701) was 49 IC50 ratio to reference peptide; with HLA-DP402 (DPB1*0402), 19 IC50 ratio to reference peptide; with HLA-DP401 (DPB1*0401), 20 IC50 ratio to reference peptide; with HLA-DRB4 (DRB4*0101), 204 IC50 ratio to reference peptide; with HLA-DRB5 (DRB5*0101), 161 IC50 ratio to reference peptide; with HLA-DR1 (DRB1*0101), 21 IC50 ratio to reference peptide. The relative binding activity in the experiment with HLA-DR11 (DRB1*1101) is 7 IC50 ratio to reference peptide; with HLA-DRB3 (DRB3*0101), 267 IC50 ratio to reference peptide.

B3: MDK 9-23 (peptide)
peptide: LTLLALLALTSAVAK
notes: synthetic 15-mer of the human midkine precursor; also called MDK3; peptide 9-23
Consider B3, for which the relative binding activity with HLA-DR7 (DRB1*0701) is 13 IC50 ratio to reference peptide; in the experiment with HLA-DP402 (DPB1*0402), 29 IC50 ratio to reference peptide; with HLA-DP401 (DPB1*0401) it was 94 IC50 ratio to reference peptide; in the experiment with HLA-DRB5 (DRB5*0101) it was 2 IC50 ratio to reference peptide; with HLA-DR1 (DRB1*0101), 0.2 IC50 ratio to reference peptide; with HLA-DR11 (DRB1*1101), 0.3 IC50 ratio to reference peptide. Moreover, the relative binding activity with HLA-DR4 (DRB1*0401) is 1 IC50 ratio to reference peptide; with HLA-DR15 (DRB1*1501), 5 IC50 ratio to reference peptide.
Regarding CKYKFENWGACDGGT (also called MDK13) [MDK 84-98], the relative binding activity was 49 IC50 ratio to reference peptide with HLA-DP402 (DPB1*0402), 52 IC50 ratio to reference peptide in the experiment with HLA-DP401 (DPB1*0401), 292 IC50 ratio to reference peptide with HLA-DRB5 (DRB5*0101) and 362 IC50 ratio to reference peptide with HLA-DR4 (DRB1*0401).
QTQRIRCRVPCNWKK (also called MDK9) [MDK 64-78]: the relative binding activity is 2070 IC50 ratio to reference peptide in the experiment with HLA-DR7 (DRB1*0701); 1160 IC50 ratio to reference peptide with HLA-DRB4 (DRB4*0101); 61 IC50 ratio to reference peptide in the experiment with HLA-DRB5 (DRB5*0101); 504 IC50 ratio to reference peptide in the experiment with HLA-DR11 (DRB1*1101); 558 IC50 ratio to reference peptide with HLA-DR4 (DRB1*0401).
Regarding CNWKKEFGADCKYKF (also called MDK11) [MDK 74-88], the relative binding activity is 714 IC50 ratio to reference peptide in the experiment with HLA-DRB5 (DRB5*0101); 333 IC50 ratio to reference peptide in the experiment with HLA-DR1 (DRB1*0101); 1230 IC50 ratio to reference peptide with HLA-DR11 (DRB1*1101); 877 IC50 ratio to reference peptide with HLA-DRB3 (DRB3*0101); 2 IC50 ratio to reference peptide with HLA-DR3 (DRB1*0301).

B4: MDK 4-18 (peptide)
peptide: RGFLLLTLLALLALT
notes: synthetic 15-mer of the human midkine precursor; also called MDK2; peptide 4-18
Regarding B4, the relative binding activity with HLA-DR7 (DRB1*0701) is 20 IC50 ratio to reference peptide; with HLA-DP402 (DPB1*0402), 18 IC50 ratio to reference peptide; with HLA-DP401 (DPB1*0401), 6 IC50 ratio to reference peptide; with HLA-DRB4 (DRB4*0101), 65 IC50 ratio to reference peptide; in the experiment with HLA-DRB5 (DRB5*0101) it was 46 IC50 ratio to reference peptide; with HLA-DR1 (DRB1*0101), 21 IC50 ratio to reference peptide. Further, the figures for the relative binding activity with HLA-DR11 (DRB1*1101), with HLA-DR15 (DRB1*1501) and with HLA-DRB3 (DRB3*0101) were 94 IC50 ratio to reference peptide, 19 IC50 ratio to reference peptide and 37 IC50 ratio to reference peptide, respectively.
In the case of KEFGADCKYKFENWG (also called MDK12) [MDK 78-92], the relative binding activity was 378 IC50 ratio to reference peptide with HLA-DP402 (DPB1*0402); 167 IC50 ratio to reference peptide with HLA-DP401 (DPB1*0401); 114 IC50 ratio to reference peptide in the experiment with HLA-DRB5 (DRB5*0101); 800 IC50 ratio to reference peptide in the experiment with HLA-DR11 (DRB1*1101); 457 IC50 ratio to reference peptide with HLA-DR4 (DRB1*0401); 226 IC50 ratio to reference peptide with HLA-DRB3 (DRB3*0101). The relative binding activity with HLA-DR3 (DRB1*0301) was 1 IC50 ratio to reference peptide.

B5: MDK 14-28 (peptide)
peptide: LLALTSAVAKKKDKV
notes: synthetic 15-mer of the human midkine precursor; also called MDK4; peptide 14-28
As to B5, the relative binding activity is 590 IC50 ratio to reference peptide with HLA-DR7 (DRB1*0701); 45 IC50 ratio to reference peptide with HLA-DR13 (DRB1*1301); 0.1 IC50 ratio to reference peptide in the experiment with HLA-DRB5 (DRB5*0101); 34 IC50 ratio to reference peptide with HLA-DR1 (DRB1*0101); 48 IC50 ratio to reference peptide with HLA-DR11 (DRB1*1101); 401 IC50 ratio to reference peptide in the experiment with HLA-DR4 (DRB1*0401).
For ENWGACDGGTGTKVR (also called MDK14) [MDK 89-103], the relative binding activity was 1460 IC50 ratio to reference peptide in the experiment with HLA-DR1 (DRB1*0101) and 2330 IC50 ratio to reference peptide with HLA-DRB3 (DRB3*0101).
For the molecule AEWAWGPCTPSSKDC (also called MDK7) [MDK 38-52], the relative binding activity with HLA-DP402 (DPB1*0402) was 239 IC50 ratio to reference peptide; with HLA-DR1 (DRB1*0101) it was 1300 IC50 ratio to reference peptide; with HLA-DR11 (DRB1*1101), 923 IC50 ratio to reference peptide; with HLA-DR4 (DRB1*0401) it was 1860 IC50 ratio to reference peptide.
For the molecule CRVPCNWKKEFGADC (also called MDK10) [MDK 70-84], the relative binding activity with HLA-DP401 (DPB1*0401) was 7 IC50 ratio to reference peptide; with HLA-DR1 (DRB1*0101), 53 IC50 ratio to reference peptide; with HLA-DR4 (DRB1*0401) it was 1560 IC50 ratio to reference peptide; with HLA-DRB3 (DRB3*0101), 621 IC50 ratio to reference peptide.
On to KDKVKKGGPGSECAE (also called MDK6) [MDK 25-39], for which the relative binding activity with HLA-DR1 (DRB1*0101) was 1250 IC50 ratio to reference peptide.
